Assay: soluble on expression in E. coli; label from the status in PepcDB or PDB records

Question: Which “soluble on expression in E. coli” value does the source give for “MNNVLLEVKDLETSLKINNEWLATVENISFELSKGEVLGIVGESGCGKSILSKSIIKLLPEKISKLSNGEVIFDGKRIDTLNEKQLLDIRGNDIAMIFQEPMTALNPVFTIKNQLVESIKSHKKISKKEANKLAKDLLKKVGIARQDEILNSYPHQLSGGMRQRVMIAMAISCSPKLLIADEPTTALDVTIQAQILDLLKELQKETQMAIMMITHDLSVVAEFCDKVLVMYAGQIVEFGGIKEILHNPKHPYTQKLLSTIPKLKEEQKRLETIEGIVPSIQAFHVNKCRFANRCNKKLDICNNQSPKMHVCEDVIVRCHLYKNEYKEI” here?
Answer: Its value is “not soluble”.

Question: Which “soluble on expression in E. coli” value does the source give for “MVTEQEIEAIGKTLVDPKQPLQARFRALFTLRGLGGPDAISWISRGFEDSSALLKHELAYCLGQMRDVRAIPVLVGVLQDTSQEPMVRHEAGEALGAIGNPEVLGLLKQYSTDPVVEVAETCQLAVGRLEWLQQHPGEATCAGPYLSVDPAPPAAEQDVGRLREALLDEARPLFERYRAMFALRNVGGKEAALALAEGLQCGSALFRHEVGYVLGQLQHEAAVPGLAATLARTTESPMVRHECAEALGAIARPACLAALREHIEDPEQVVRESCEVALDMYEYESSQDFQYADGLERLRPPP” here?
Answer: The value was “soluble”.

Question: For “VDKRESYTKEDLLASGRGELFGAKGPQLPAPNMLMMDRVVKMTETGGNFDKGYVEAELDINPDLWFFGCHFIGDPVMPGCLGLDAMWQLVGFYLGWLGGEGKGRALGVGEVKFTGQVLPTAKKVTYRIHFKRIVNRRLIMGLADGEVLVDGRLIYTASDLKVGLFQDTSAF”, which “soluble on expression in E. coli” value is on record?
Answer: The value was “soluble”.

Question: With “MAHHHHHHMCSVPISCSSTHTHTPHSLIVMSAPKKVALVTGANRGIGFATARRLGELGFKVLLGARDAKRGEEAVDTLRNDKLDVDLLLMTPTEHTSVEAAVQKVEADYKRLDVLINNAALMDFDNKVFPLNIQRMRDEFEINFFATVDITNSFLPLMLRSSEAPRLVFVSTPLGTHETVDRPQNKYAHPNLTAYKCTKSAVNMYAHNLAKYLENYAEEAGGSAASAKVNCCYPGYVQTDMCFNSTEAHFTPYEGAETSVWLATLPADGPTGGFYHRAQKLPW” as the sequence, how does the “soluble on expression in E. coli” value read?
Answer: The value was “soluble”.

Question: For “MGSDKIHHHHHHMATLTTNTPIATGSTFSAASLQFLNKLAQNNSRDWFKAHQAEYEETVRTPALQFIEQMQPSILALSPRLTAVPKKVGGSLMRPQRDSRFSKDKTPYKTNIGIQFRHFQGKDVHAPGLYLHIAEDGCFIAAGIWHPESKALNAIRTCIDENPNGYKKALQTLQNHGFTMDGDSLTRPPKGFDKNHPMLTELKRKDFIAVKNIAFEELCRPDAACFCAEQFAHCTQLMAYLCFALDLDF”, which “soluble on expression in E. coli” value is on record?
Answer: The value was “not soluble”.

Question: Which “soluble on expression in E. coli” value does the source give for “SLEKLEFEDEAVEDSESGVYMRFMRSHKCYDIVPTSSKLVVFDTTLQVKKAFFALVANGVRAAPLWESKKQSFVGMLTITDFINILHRYYKSPMVQIYELEEHKIETWRELYLQETFKPLVNISPDASLFDAVYSLIKNKIHRLPVIDPISGNALYILTHKRILKFLQLFMSDMPKPAFMKQNLDELGIGTYHNIAFIHPDTPIIKALNIFVERRISALPVVDESGKVVDIYSKFDVINLAAEKTYNNLDITVTQALQHRSQYFEGVVKCNKLEILETIVDRIVRAEVHRLVVVNEADSIVGIISLSDILQALILTPAGAKQKETETE” here?
Answer: The value was “soluble”.

Question: With “MGSDKIHHHHHHMANLYDLKKFDLNLLVIFECIYQHLSISKAAESLYITPSAVSQSLQRLRAQFNDPLFIRSGKGIAPTTTGLNLHHHLEKNLRGLEQTINIVNKSELKKNFIIYGPQLISCSNNSMLIRCLRQDSSVEIECHDILMSAENAEELLVHRKADLVITQMPVISRSVICMPLHTIRNTLICSNRHPRITDNSTYEQIMAEEFTQLISKSAGVDDIQMEIDERFMNRKISFRGSSLLTIINSIAVTDLLGIVPYELYNSYRDFLNLKEIKLEHPLPSIKLYISYNKSSLNNLVFSRFIDRLNESF” as the sequence, how does the “soluble on expression in E. coli” value read?
Answer: Its value is “not soluble”.

Question: Which “soluble on expression in E. coli” value does the source give for “MSLTNVVAYIRVSTKSQGDSGLGLEAQRDYIQRAAQANDWNVVGEFVDVVSGKLALEDRPEGAKALTMCKQHNAQLLVAKLDRLSRSVLHIAQLMEQVDFKVATMPQADKFQLHLFAALAQQEREFIATRTKEALASLQRRADAGDAVAQQKVANRAEAQAKGRAVADITAANNIRMSKINTYQTNIEPHLKSCLHDKISEGHHHHHH” here?
Answer: Its value is “soluble”.

Question: Which “soluble on expression in E. coli” value does the source give for “MVAQKAYVSTPTLIDYLSRSAIKLLDIHSILLKVREEAMGGEPNLLRQIDSTKKQLDEISHALILEYRKRQENERFLKQILLSISDQLFSLNNGFKETGRLFFQEIRMLQSQMQCFYEGKERQYLLSEQESSYSPSKIDEVIKQLQKAREKLIVESPHLFEKEC” here?
Answer: The value was “not soluble”.

Question: With “MKPLRSPWVMRALARFFSGYIALTYKTLRWTREGQAIADRVQAEALASGGGAILALWHSRVPVGPATWPQGPDKPEIRVLVSQSRDGEFIARVIARLGLPSIRGSSLKKTDTAKNKGGEQAFRDMVKWVKDGGAMAITPDGPRGPVEVMQKGAVALARVSGAPVLFVGVAVNPCIRLKTWDRTIIPLPFAKAAMVWDGPVHAGRDDDPDAVVEAWGARLSAVSRRAEAIVGETPPKDLEHHHHHH” as the sequence, how does the “soluble on expression in E. coli” value read?
Answer: Its value is “not soluble”.

Question: Which “soluble on expression in E. coli” value does the source give for “MSISWGAQYPKLKTNLRLGINRLQLLGKKKTEMAMKARTEIADYIAANKPDRARIRVEHIIREDYVVEAFEILEMYCDLLLARFGLIEQMKTLDDGIAEAVISIMWAAPRLATDIAEFKTISDQLTIKYGKPFAEAARANQLEFPARVNPKIISKLGAAAPPKLLVERYMIEIAAAAGVPFVPDPDVMREDEVHQAEQILIDFKNAGGNGPSGPDGPPPPPSNPYGGSGNDNGSSGGGGGYGWNLENQSAIGSGVMPHGTAIGGGVQPVSNFIPPPPNRHPNEPPQDDENIYDHIPDVSGGNIYEVPSRDHYDFPPDAFNEEPPKTNPTTGVINLPKIGPNGLPIYPGQQQPKGPGGAQAYPALSQRNSLVNPNLQPNHPTAPPQSLRKPDDFSDLSFPEPPSSFVGGNNKPGGPGGNNGGGAGNGGFDDFDDLARRFEELKKIK” here?
Answer: Its value is “not soluble”.

Question: Which “soluble on expression in E. coli” value does the source give for “MTYRELVERQLAVRHADLELGLSRAREQEPFVIHVSDLLDKAGIEYAVRMDKDFQTTFHLEYPITNYDTFKRAVWQTLGAYYCVCNDGDGLEIASNRPDGYAVRIVFGDVPV” here?
Answer: The value was “not soluble”.

Question: For “SFTSQQWKHLSNDFLKTQQEKRHSWFKASGTIKKFRAGLSIFSPIPKSPSFPIIQDSMLKGKLGVPELRVGRLMNRSISCTMKNPKVEVFGYPPSPQVSGHCKNIPTLEYGFLVQIMKYAEQRIPTLNEYCVVCDEQHVFQNGSMLKPAVCTRELCVFSFYTLGVMSGAAEEVATGAEVVDLLVAMCRAALESPRKSIIFEPYPSVVDPTDPKTLAFNPKKKNYERLQKALDSVMSIREMTQGSYLEIKKQMDKLDPLAHPLLQWIISSNRSHIVKLPLSRLKFMHTSHQFLLLSSPPAKEARFRTAKKLYGSTFAFHGSHIENWHSILRNGLVNASYTKLQEWEKDSTGCPPRMSWSRDTTG”, which “soluble on expression in E. coli” value is on record?
Answer: Its value is “soluble”.

Question: Which “soluble on expression in E. coli” value does the source give for “MADGQVHDELMMDQQQQQGVVPQQGDIHLSPIDKDLGDAALENNVRQYHLDGVVVSEGMKRMIIDLQRHWLSEYHASREKCLVELTEKLHQEFMMDQQKIRSELLQQFKDELEQTRADLENKHRENLKMESAKLNEKHKRELVASRKKQWCWSCDNEAIYHCCWNTAYCSVECQQGHWQTHRKFCRRKKGNNAPGAPSVPAPQQVGAPMPPQQQ” here?
Answer: Its value is “not soluble”.

Question: Which “soluble on expression in E. coli” value does the source give for “MGSDKIHHHHHHMLSTTNLTMQFGAKALFENVSVEFGNGNRYGLIGANGSGKTTLMKILGGDLEPSSGHVSLSSGERLGKLRQDQFAFEECTVLDTVIMGHAELWRVKQERDRLYALPEMTDEEGMAVAHVEVEFAELGGYAAESRAGELLSGVGIPLEQHSGLMSAVSPGWKLRVLLAQALFADPDILLLDEPTNNLDIHTIQWLEELISNLNSTVIIISHDRHFLNSVCTHMADLDYGELRIYPGNYDEYMQASTLVRDQLLADNDKKKEKMAELQGFVSRFSANASKAKQATSRARQLEKIQLAEVKPSSRQNPYLVFNQERKLYRNALDGKDLSKSFGDLRLFHKMRLHVEAGERIAIIGSNGLGKTTLLRCLMGELTTDAGEIKWAENARIGYFAQDYAPEFAEDMTLFDWMCQWRGERDDDQVIRGVLGRLLFGQDQVNRSVKVLSGGEKGRMLFGKLTLQKPNVLILDEPTNHLDMESIESLNSALEKYDGTLLFVSHDRAFVSSLATRIIEFTPRGIQDFKGTYEDYLRSQGMG” here?
Answer: Its value is “not soluble”.

Question: With “MRGSHHHHHHGSLQVTVRDAINQGMDEELERDEKVFLLGEEVAQYDGAYKVSRGLWKKYGDKRIIDTPISEMGFAGIAVGAAMAGLRPICEFMTFNFSMQAIDQVINSAAKTYYMSGGLQPVPIVFRGPNGASAGVAAQHSQCFAAWYGHCPGLKVVSPWNSEDAKGLIKSAIRDNNPVVVLENELMYGVPFEFPPEAQSKDFLIPIGKAKIERQGTHITVVSHSRPVGHCLEAAAVLSKEGVECEVINMRTIRPMDMETIEASVMKTNHLVTVEGGWPQFGVGAEICARIMEGPAFNFLDAPAVRVTGADVPMPYAKILEDNSIPQVKDIIFAIKKTLNI” as the sequence, how does the “soluble on expression in E. coli” value read?
Answer: The value was “soluble”.

Question: With “MSLRDISILLAEDESELRELLHEYLQLFFGRVYAATSGDQAYDIYKQKKPDIIITDISMPNLDGLEMISKIRESDKETKIIVMSAHSEQERLLLAIKLNLESYLIKPIKTEALKTILLDIVKHLREKSRRTYVTENIYWEHETNTLWGNSKEIKLRKMESMLLKLLFSRPNEIFSTKEIFDYLHETKNDKEFSVHAVTSLMKRLRAKLPNEVIHNIYGSGYKIIPIEGHHHHHH” as the sequence, how does the “soluble on expression in E. coli” value read?
Answer: The value was “soluble”.

Question: With “MGSDKIHHHHHHMSVFLRNAWYMACWSHEVPEGGFLARRLLDKPWVIWRKADGTPVIMADRCPHRFVPLSRGQRDGDMMRCGYHGLAFSSSGGCVHNPFTDEALPLARVEVLPVVEKHTGLWFWPGDADRADPALIPDFGFLDVERPLHRGHLKMDAGYELVTDNLMDLSHAEFIHRDSFGVNGSLLTCGQHEVVQDEGGAIWNNWTMPDSEPPSWAVAMLPEGARTDQWLHMRWNAPSCLALFLGLARSGTDRKDMVVPPMADPHILTPETVTSTHYFYTHEPTPEAHALLEKAFLEEDHPMLHAQQEAMGSADFWDLRPVVLPSDAGAIRVRRRMMQLRRAEAGLEEEAAA” as the sequence, how does the “soluble on expression in E. coli” value read?
Answer: Its value is “not soluble”.

Question: Which “soluble on expression in E. coli” value does the source give for “MGSDKIHHHHHHMRNILIALCLSLTALNSHAADQIERMAADKMQSYKESKINWKDDPILPKGAKSALILGDPSKPGVFIAWLKFPANYPIPAHTHPFTEVITVLKGKLGNGMGEVLDKKKGETLNVGESFVLPAGHAHYVWTGNEETIIELIATGPWDITYSNPKDDPRTK” here?
Answer: Its value is “not soluble”.

Question: For “MSLVLMIVSGRSGSGKSVALRALEDMGFYCVDNLPVVLLPDLARSLADRNISAAVSIDVRNMPESPEIFEQAMQNLPECFSPQLLFLDADRNTLIRRYSDTRRLHPLSSKNLSLESAIDEESDLLEPLRSRADLIVDTSEMSVHELAEMLRTRLLGKRERELTMVFESFGFKHGIPIDADYVFDVRFLPNPHWDPKLRPMTGLDKPVAAFLDRHTEVHNFIYQTRSYLELWLPMLETNNRSYLTVAIGCTGGKHRSVYIAEQLADYFRSRGKNVQSRHRTLEKRKSEGGSHHHHHH”, which “soluble on expression in E. coli” value is on record?
Answer: The value was “soluble”.

Question: Which “soluble on expression in E. coli” value does the source give for “MCMIVYFFFIHKPLAFYFIRLFHPHPFPVVLDHILLLISSLIGFKSQDSSFRHQNSDCQMNVFQVIIFLLSVLAVFSSADLSIDGESLVLSINEEGPIKVRRARETGEH” here?
Answer: Its value is “not soluble”.

Question: For “MGSDKIHHHHHHMSPDVYLQIFETRRPQLLRLAYRMLGSHAEAEDVVQEAWIRWQAADQAQIAIPAAWLNRVVSRLCLDLMRSARHRRESYIGPWLPEPLIEEEDADHRPDNLTLSLMMALERLSPLERAAFLLHDVFGQSFDEVALALDRSPSAARQLAVRARAHVHIDRPRYKVEREAAEGLTRAFFEACKTGDAAVLSGLLAEDAVLHSDGGGKVYNLLNVIVGAQKLLRMFTSLSRKRGDEMEFVQFTLIDALPGYVWRMGDQIQTTALEVEDGRITRVYTTRNPDKLTRIRLN”, which “soluble on expression in E. coli” value is on record?
Answer: The value was “not soluble”.
